Usually Kd stands for the free concentration of one partner at which half of the binding sites on the other are occupied at equilibrium, for simple one-to-one binding.

Data set [1] addresses PABP 2-3 mt (human, UniProt P11940 1-175+=[…]+190-636, internal_change). Description: EMSA. In general terms: Mobility shift assays separate free from complexed probe on a gel.
The target in data set [2] is WT PABP (human, UniProt P11940 1-636). Description: EMSA.
Data set [3] addresses His-PABP-Flag (wild-type full-length human poly(A)-binding protein) (human, UniProt P11940 1-636). Description: pull-down.

B1: poly(A)25 RNA (ssRNA)
RNA: AAAAAAAAAAAAAAAAAAAAAAAAA
For B1, the values for the Kd in data set [1] and in data set [2] were approximately 6.9 nM and approximately 5.9 nM, respectively.

B2: His-eIF4G-N (truncated human eIF4GI, amino acids 42–653, with the PABP- and eIF4E-binding sites) (domain or fragment)
chain: NTPSQPRQHFYPSRAQPPSSAASRVQSAAPARPGPAAHVYPAGSQVMMIPSQISYPASQGAYYIPGQGRSTYVVPTQQYPVQPGAPGFYPGASPTEFGTYAGAYYPAQGVQQFPTGVAPTPVLMNQPPQIAPKRERKTIRIRDPNQGGKDITEEIMSGARTASTPTPPQTGGGLEPQANGETPQVAVIVRPDDRSQGAIIADRPGLPGPEHSPSESQPSSPSPTPSPSPVLEPGSEPNLAVLSIPGDTMTTIQMSVEESTPISRETGEPYRLSPEPTPLAEPILEVEVTLSKPVPESEFSSSPLQAPTPLASHTVEIHEPNGMVPSEDLEPEVESSPELAPPPACPSESPVPIAPTAQPEELLNGAPSPPAVDLSPVSEPEEQAKEVTASMAPPTIPSATPATAPSATSPAQEEEMEEEEEEEEGEAGEAGEAESEKGGEELLPPESTPIPANLSQNLEAAAATQVAVSVPKRRRKIKELNKKEAVGDLLDAFKEANPAVPEVENQPPAGSNPGPESEGSGVPPRPEEADETWDSKEDKIHNAENIQPGEQKYEYKSDQWKPLNLEEKKRYDREFLLGFQFIFASMQKPEGLPHISDVVLDKANKTPLRPLD
Take B2: the “fold increase of binding with eIF4E against without eIF4E” value in data set [3] was approximately 3 fold.

The values above are taken from article PMC5367257 (RNA Biology, 2017).
